Paper PMC12802916
Residue numbers refer to the chain shown, from its start.

T1: ST2/IL-33R Fc chimera (Mus musculus, UniProt P14719 27-332)
T1 sequence: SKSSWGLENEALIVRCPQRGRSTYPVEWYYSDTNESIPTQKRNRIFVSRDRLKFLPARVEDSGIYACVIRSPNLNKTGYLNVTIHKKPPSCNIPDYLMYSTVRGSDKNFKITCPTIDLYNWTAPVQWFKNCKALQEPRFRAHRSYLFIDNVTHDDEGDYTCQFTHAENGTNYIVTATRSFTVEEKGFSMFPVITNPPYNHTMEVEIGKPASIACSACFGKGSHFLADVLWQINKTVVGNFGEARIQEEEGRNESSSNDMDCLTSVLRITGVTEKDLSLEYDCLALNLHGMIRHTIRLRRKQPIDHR

B1: B RaptScore round6 2 (ssRNA)
RNA: GGGAGAACUUCGACUUGUAACAAGCUGUUUUGGAACAGCGCAUAACGAACCGUGCAGAGAUCCUC
B2: B RaptScore round6 3 (ssRNA)
RNA: B1 RNA with C50A
B3: B RaptScore round7 1 (ssRNA)
RNA: B1 RNA with A49U
B4: B RaptScore round7 3 (ssRNA)
RNA: B1 RNA with A49U, C50U

Target: T1, ST2/IL-33R Fc chimera
Experiment: SPR; SPR (Biacore T200): 295 mM NaCl, 5.4 mM KCl, 0.8 mM MgCl2, 18 mM CaCl2 (printed CaClCl2), 0.05% Tween 20, 20 mM Tris-HCl pH 7.6; temperature not stated. A/C: po

| Binder | binding signal |
| --- | --- |
| B1 | -4.91 % of B Round7 3 |
| B2 | -3.28 % of B Round7 3 |
| B3 | -4.12 % of B Round7 3 |
| B4 | -0.82 % of B Round7 3 |
